In the supplement of paper PMC9112550, “Optimization of the antimicrobial peptide Bac7 by deep mutational scanning” (BMC Biology, 2022):

Test system: Escherichia coli TOP10
Assay: shrunken log2 fold change of peptide-encoding DNA abundance (4.5 h post-induction vs induction); higher = less antimicrobial activity (less host growth inhibition)
Details: time post-induction: 4.5 h; library: site-saturation at positions 5, 18, 19, 20
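Also: peptides expressed intracellularly from a pBAD plasmid library in pooled LB shake-flask culture, induced with 0.3% L-arabinose, DNA abundance read by NGS, three biological replicates, DESeq2 with apeglm shrinkage.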

Row | Sequence | shrunken log2 fold change
1 | RRIRWRPPRLPRPRPRPGVEPRP | 0.579
2 | RRIRYRPPRLPRPRPRPNWVPRP | -0.443
3 | RRIRWRPPRLPRPRPRPMGWPRP | 0.299
4 | RRIRPRPPRLPRPRPRPVCQPRP | -0.1
5 | RRIRARPPRLPRPRPRPTELPRP | 0.595
6 | RRIRSRPPRLPRPRPRPDKEPRP | 0.0247
7 | RRIRERPPRLPRPRPRPQFYPRP | -0.452
8 | RRIRFRPPRLPRPRPRPYTEPRP | -0.631
9 | RRIRIRPPRLPRPRPRPKNVPRP | -0.139
10 | RRIRERPPRLPRPRPRPMIMPRP | -0.00163
11 | RRIRMRPPRLPRPRPRPIIHPRP | -0.136
12 | RRIRPRPPRLPRPRPRPGFKPRP | 0.13
13 | RRIRDRPPRLPRPRPRPCYHPRP | -0.019
14 | RRIRCRPPRLPRPRPRPYRRPRP | -0.344
15 | RRIRKRPPRLPRPRPRPCEIPRP | 0.128
16 | RRIRARPPRLPRPRPRPYFVPRP | -0.122
17 | RRIRNRPPRLPRPRPRPPCDPRP | -0.0173
18 | RRIRIRPPRLPRPRPRPTLQPRP | 0.00305
19 | RRIRHRPPRLPRPRPRPHTGPRP | -0.226
20 | RRIRPRPPRLPRPRPRPHVMPRP | -0.0285
21 | RRIRHRPPRLPRPRPRPTQDPRP | 1.87
22 | RRIRMRPPRLPRPRPRPTCNPRP | -0.0778
23 | RRIRNRPPRLPRPRPRPLKKPRP | -0.0418
24 | RRIRIRPPRLPRPRPRPEICPRP | -0.0162
25 | RRIRQRPPRLPRPRPRPDKFPRP | -0.513

Row | Sequence | shrunken log2 fold change
26 | RRIRMRPPRLPRPRPRPNGHPRP | -0.00897
27 | RRIRARPPRLPRPRPRPFKTPRP | 0.0511
28 | RRIRIRPPRLPRPRPRPIDPPRP | -0.142
29 | RRIRYRPPRLPRPRPRPYPVPRP | 0.011
30 | RRIRARPPRLPRPRPRPNGWPRP | 0.401
31 | RRIRARPPRLPRPRPRPFGEPRP | 0.15
32 | RRIRCRPPRLPRPRPRPILVPRP | -0.0457
33 | RRIRWRPPRLPRPRPRPTLIPRP | 0.0335
34 | RRIRYRPPRLPRPRPRPAQVPRP | -0.0734
35 | RRIRRRPPRLPRPRPRPENFPRP | -0.0287
36 | RRIRVRPPRLPRPRPRPESHPRP | -0.138
37 | RRIRCRPPRLPRPRPRPVIQPRP | -0.468
38 | RRIRTRPPRLPRPRPRPLAMPRP | 0.128
39 | RRIRFRPPRLPRPRPRPYNKPRP | -0.955
40 | RRIRYRPPRLPRPRPRPNEIPRP | -0.807
41 | RRIRPRPPRLPRPRPRPNSSPRP | -0.396
42 | RRIRSRPPRLPRPRPRPLCDPRP | 0.155
43 | RRIRRRPPRLPRPRPRPRDHPRP | 0.397
44 | RRIRNRPPRLPRPRPRPWQRPRP | -0.0153
45 | RRIRPRPPRLPRPRPRPTHEPRP | 0.466
46 | RRIRFRPPRLPRPRPRPVRVPRP | 0.349
47 | RRIRWRPPRLPRPRPRPYWDPRP | -0.415
48 | RRIRARPPRLPRPRPRPESAPRP | 0.858
49 | RRIRSRPPRLPRPRPRPGLEPRP | 0.00456
50 | RRIRNRPPRLPRPRPRPPQVPRP | 0.0214

Row | Sequence | shrunken log2 fold change
51 | RRIRTRPPRLPRPRPRPQPSPRP | -0.095
52 | RRIRLRPPRLPRPRPRPAVEPRP | -0.0223
53 | RRIRYRPPRLPRPRPRPQFCPRP | -0.0677
54 | RRIRDRPPRLPRPRPRPGIFPRP | 0.0908
55 | RRIRLRPPRLPRPRPRPRAIPRP | 0.0282
56 | RRIRVRPPRLPRPRPRPVNVPRP | -0.411
57 | RRIRLRPPRLPRPRPRPWYMPRP | -0.0481
58 | RRIRTRPPRLPRPRPRPQGHPRP | -0.122
59 | RRIRRRPPRLPRPRPRPVELPRP | 0.0415
60 | RRIRKRPPRLPRPRPRPIQNPRP | 0.151
61 | RRIRARPPRLPRPRPRPYRLPRP | -0.275
62 | RRIRWRPPRLPRPRPRPGYTPRP | -0.13
63 | RRIRFRPPRLPRPRPRPQWIPRP | -0.148
64 | RRIRARPPRLPRPRPRPRPYPRP | 0.375
65 | RRIRDRPPRLPRPRPRPPDDPRP | 0.535
66 | RRIRKRPPRLPRPRPRPSPTPRP | -0.00658
67 | RRIRGRPPRLPRPRPRPRNAPRP | 0.619
68 | RRIRERPPRLPRPRPRPQPGPRP | 0.0699
69 | RRIRERPPRLPRPRPRPYQMPRP | -0.448
70 | RRIRNRPPRLPRPRPRPCRYPRP | -0.148
71 | RRIRCRPPRLPRPRPRPHEQPRP | -0.15
72 | RRIRTRPPRLPRPRPRPQLVPRP | 0.0727
73 | RRIRWRPPRLPRPRPRPCHTPRP | -0.53
74 | RRIRPRPPRLPRPRPRPEGFPRP | 0.86
75 | RRIRVRPPRLPRPRPRPRPFPRP | 0.351

Row | Sequence | shrunken log2 fold change
76 | RRIRLRPPRLPRPRPRPTNCPRP | -0.0927
77 | RRIRFRPPRLPRPRPRPPDHPRP | 0.28
78 | RRIRARPPRLPRPRPRPAQTPRP | 0.057
79 | RRIRFRPPRLPRPRPRPNYVPRP | -0.492
80 | RRIRTRPPRLPRPRPRPIIEPRP | -0.565
81 | RRIRYRPPRLPRPRPRPWEYPRP | -0.142
82 | RRIRLRPPRLPRPRPRPVPVPRP | -0.0404
83 | RRIRLRPPRLPRPRPRPDSCPRP | -0.851
84 | RRIRERPPRLPRPRPRPTIWPRP | -0.222
85 | RRIRIRPPRLPRPRPRPIIIPRP | -0.598
86 | RRIRWRPPRLPRPRPRPRANPRP | 0.425
87 | RRIRERPPRLPRPRPRPIFQPRP | -0.00561
88 | RRIRPRPPRLPRPRPRPGSSPRP | -0.0653
89 | RRIRKRPPRLPRPRPRPNKVPRP | -0.00759
90 | RRIRKRPPRLPRPRPRPQYMPRP | 0.0201
91 | RRIRVRPPRLPRPRPRPGFRPRP | 0.205
92 | RRIRPRPPRLPRPRPRPISNPRP | -0.408
93 | RRIRLRPPRLPRPRPRPNKHPRP | -0.43
94 | RRIRARPPRLPRPRPRPQWSPRP | 0.245
95 | RRIRYRPPRLPRPRPRPNLQPRP | -0.614
96 | RRIRDRPPRLPRPRPRPGGFPRP | 0.134
97 | RRIRQRPPRLPRPRPRPHMEPRP | -0.172
98 | RRIRRRPPRLPRPRPRPAWQPRP | 0.561
99 | RRIRRRPPRLPRPRPRPTVFPRP | 0.721
100 | RRIRTRPPRLPRPRPRPPMQPRP | 0.0806

Row | Sequence | shrunken log2 fold change
101 | RRIRMRPPRLPRPRPRPAFQPRP | 0.0845
102 | RRIRLRPPRLPRPRPRPAYHPRP | -0.249
103 | RRIRLRPPRLPRPRPRPPYPPRP | -0.0316
104 | RRIRVRPPRLPRPRPRPMKYPRP | -0.0836
105 | RRIRQRPPRLPRPRPRPQGLPRP | 0.0739
106 | RRIRGRPPRLPRPRPRPRRMPRP | 0.706
107 | RRIRVRPPRLPRPRPRPRGLPRP | 0.307
108 | RRIRMRPPRLPRPRPRPHASPRP | 0.116
109 | RRIRWRPPRLPRPRPRPIWCPRP | 0.151
110 | RRIRPRPPRLPRPRPRPQYMPRP | -0.506
111 | RRIRHRPPRLPRPRPRPETTPRP | 0.194
112 | RRIRYRPPRLPRPRPRPFCKPRP | -1.59
113 | RRIRHRPPRLPRPRPRPASCPRP | -0.5
114 | RRIRERPPRLPRPRPRPGWQPRP | 0.0683
115 | RRIRMRPPRLPRPRPRPCVFPRP | -0.065
116 | RRIRCRPPRLPRPRPRPMMSPRP | -0.0652
117 | RRIRMRPPRLPRPRPRPWQRPRP | 0.179
118 | RRIRIRPPRLPRPRPRPTDYPRP | -0.223
119 | RRIRWRPPRLPRPRPRPVSKPRP | 0.0519
120 | RRIRERPPRLPRPRPRPNMTPRP | -0.276
121 | RRIRNRPPRLPRPRPRPGDFPRP | 0.264
122 | RRIRARPPRLPRPRPRPPFAPRP | 0.87
123 | RRIRDRPPRLPRPRPRPLYQPRP | -0.0432
124 | RRIRARPPRLPRPRPRPMCGPRP | 0.121
125 | RRIRLRPPRLPRPRPRPQMYPRP | -0.115
